Here are results for 18 molecules from patent US20250154283A1 (published 2025).

Substitutions are numbered along the chain they refer to.

In experiment [1] the target is T1, biotinylated human VWF cysteine knot (CK) domain construct (human, biotin on the in vitro biotinylation tag (residue not stated); one N-glycan).
T1 construct: Disulfide-linked homodimer; also called biotinylated human VWF CK domain; human VWF CK domain construct
T1 chain: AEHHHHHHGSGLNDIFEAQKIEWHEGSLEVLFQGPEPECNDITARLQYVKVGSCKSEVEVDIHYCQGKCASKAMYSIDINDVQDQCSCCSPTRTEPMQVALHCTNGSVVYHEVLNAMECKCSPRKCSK
Description: SPR, scFv captured on anti-SV5, pH 7.4.

Experiment [2] concerns the target T2, biotinylated human VWF cysteine knot (CK) domain construct (human, UniProt P04275 2724-2813, biotinylated in vitro (BirA) on the biotinylation tag; one N-glycan).
T2 construct: Expressed in HEK293 EBNA cells; disulfide-linked homodimer; also called human VWF CK; human VWF CK domain; not shown: in vitro biotinylation tag, HRV-3C site and 3 VWF residues before the CK domain
The experiment in a line: SPR, scFv captured via anti-SV5, CK domain injected, pH 5.5, apparent Kd.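 Further: scFvs from crude yeast supernatants captured on chip-bound anti-SV5 antibody, Kd computed as koff divided by kon, dimeric CK construct likely makes affinity appear higher.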

Experiment [3] deals with T2, biotinylated human VWF cysteine knot …. The experiment in a line: SPR, scFv captured via anti-SV5, CK domain injected, pH 7.4, apparent Kd.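 Further: scFvs from crude yeast supernatants printed on an amine-coupled anti-SV5 lawn, Kd computed as koff over kon, likely overestimating affinity because the CK construct is dimeric.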 On the technique in general: SPR reads the build-up and loss of mass on a sensor chip optically.
Description: Briefly, a sensor chip was activated and coupled with an anti-SV5 mouse monoclonal antibody using amine coupling. The soluble scFvs in crude yeast supernatants were printed on the anti-SV5 lawn. […] From the measured association (kₒₙ) and dissociation (koff) rate constants, an apparent equilibrium dissociation constant (Kd=koff/kₒₙ) was estimated. Due to the dimeric state of the CK construct and consequent possibility for simultaneous binding of captured scFv to both monomers in the CK dimer, the SPR setup was expected to overestimate the binding affinity.
Experiment [4] addresses T3, biotinylated cynomolgus monkey VWF cysteine knot (CK) domain construct (cynomolgus monkey, biotinylated in vitro (BirA) on the biotinylation tag; one N-glycan).
T3 construct: Expressed in HEK293 EBNA cells; disulfide-linked homodimer; also called cyno VWF CK; cyno VWF CK domain; not shown: in vitro biotinylation tag, HRV-3C site and 3 VWF residues before the CK domain
T3 chain: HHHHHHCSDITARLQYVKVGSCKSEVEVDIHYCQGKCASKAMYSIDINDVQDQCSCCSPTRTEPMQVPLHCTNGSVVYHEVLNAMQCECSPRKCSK
Described as above.

B1: 4142_Lib1_scFv (scFv, not shown: small tags and cut ends)
scFv: QVQLVQSGAEVKKPGASVKVSCKVSGYPFTSSGIHWVRQAPGKGLEWMGGVIPLFGTANYAQKFQGRVTMTEDTSTDTAYMELSSLKSEDTAVYYCARIRVSSGWYRDYGMDVWGQGTTVTVSSSGGSTITSYNVYYTKLSSSGTDIQMTQSPSSVSASVGDRVTITCRASQDITNDLAWYQQKPGKAPKLLIYDASRLQSGVPSRFSGSGSGTDFTLTISSLQPEDFANYYCQQTFTTPLTFGGGTKVEIK
For B1, the binding result in experiment [1] was “binds”.

B2: 4029_Lib1_scFv (scFv, not shown: small tags and cut ends)
scFv: B1 scFv with D173S, T175G, N176D, D177F, R198H, S201T, F237S, T239I, L241P
As to B2, in experiment [1], the binding result was “binds”.

B3: Lib1_P1_C6_scFv (scFv, not shown: small tags and cut ends)
scFv: QVQLVQSGAEVKKPGASVKVSCKVSGYTFASHYIHWVRQAPGKGLEWMGGMDPATGQTIYAQKFQGRVTMTEDTSTDTAYMELSSLKSEDTAVYYCAKGDRSSWYEVLSFQHWGQGTLVTVSSSGGSTITSYNVYYTKLSSSGTDIQMTQSPSSVSASVGDRVTITCRASQGISTDLAWYQQKPGKAPKLLIYDASILQRGVPSRFSGSGSGTDFTLTISSLQPEDFANYYCQQVRTYPFTFGGGTKVEIK
As for B3, in experiment [1], the binding result is listed as “binds”.

B4: 4166_Lib4_scFv (scFv, not shown: small tags and cut ends)
scFv: QVQLQESGPGLVKPSQTLSLTCTVSGESFSGHFWSWIRQPPGKGLEWIGYISQSGRTDYNPSLKSRVTMSVDTSKNQFSLKVNSVTAADTAVYYCARTLPRIQLWSPRGAFDIWGQGTMVTVSSSGGSTITSYNVYYTKLSSSGTEIVMTQSPATLSLSPGERATLSCRASQSLGRSLAWYQQKPGQAPRLLIYDASHRATGIPARFSGSGSGTDFTLTISSLEPEDFAVYYCQQYVSYPLTFGGGTKVEIK
As for B4, the binding result in experiment [1] is on record as “binds”.

B5: Lib4_P2_H3_scFv (scFv, not shown: small tags and cut ends)
scFv: QVQLQESGPGLVKPSQTLSLTCTVSGSTFGDYAWSWIRQPPGKGLEWIGYINHIGNADYNPSLKSRVTMSVDTSKNQFSLKVNSVTAADTAVYYCARDGVESPEVPNYYYYGMDVWGQGTTVTVSSSGGSTITSYNVYYTKLSSSGTEIVMTQSPATLSLSPGERATLSCRASHSIGSNLAWYQQKPGQAPRLLIYDATNRAPGIPARFSGSGSGTDFTLTISSLEPEDFAVYYCQQSYTNPTFGGGTKVEIK
Regarding B5, the binding result in experiment [1] is recorded as “binds”.

B6: 9301_Lib8_scFv (scFv, not shown: small tags and cut ends)
scFv: EVQLVESGGGLVQPGRSLRLSCAASGFNFHNYDMHWVRQAPGKGLEWVSAISGSGYTADYADSVEGRFTISRDNAKNSLYLQMNSLRAEDTAVYYCAKSHSSGWSSAFDIWGQGTMVTVSSSGGSTITSYNVYYTKLSSSGTDIQMTQSPSSLSASVGDRVTITCRASQTIGYWLAWYQQKPGKAPKLLIYDASVPESGVPSRFSGSGSGTDFTLTISSLQPEDVATYYCQQTLSSPWTFGGGTKVEIK
As for B6, the binding result in experiment [1] is “binds”.

B7: 8226_Lib8_scFv (scFv, not shown: small tags and cut ends)
scFv: EVQLVESGGGLVQPGRSLRLSCAASGFNFHNYDMHWVRQAPGKGLEWVSAISGGAVSTDYADSVEGRFTISRDNAKNSLYLQMNSLRAEDTAVYYCARSSWYGGQIDFWGQGTLVTVSSSGGSTITSYNVYYTKLSSSGTDIQMTQSPSSLSASVGDRVTITCRASQDISGWLAWYQQKPGKAPKLLIYAASSLQDGVPSRFSGSGSGTDFTLTISSLQPEDVATYYCQQSYRIPSTFGGGTKVEIK
B7: the binding result in experiment [1] was “binds”.

B8: Lib8_P4_C10_scFv (scFv, not shown: small tags and cut ends)
scFv: EVQLVESGGGLVQPGRSLRLSCAASGFNFHNYDMHWVRQAPGKGLEWVSAISGSSDTMDYADSVEGRFTISRDNAKNSLYLQMNSLRAEDTAVYYCVRASWYGTFFDYWGQGTLVTVSSSGGSTITSYNVYYTKLSSSGTDIQMTQSPSSLSASVGDRVTITCRASQDISGWLAWYQQKPGKAPKLLIYAASSLQDGVPSRFSGSGSGTDFTLTISSLQPEDVATYYCQQSYRIPSTFGGGTKVEIK
For B8, the binding result in experiment [1] was “binds”.

B9: 1081_Lib8_scFv (scFv, not shown: small tags and cut ends)
scFv: EVQLVESGGGLVQPGRSLRLSCAASGFNFHNYDMHWVRQAPGKGLEWVSAISGGAVSTDYADSVEGRFTISRDNAKNSLYLQMNSLRAEDTAVYYCARSSWYGGQIDFWGQGTLVTVSSSGGSTITSYNVYYTKLSSSGTDIQMTQSPSSLSASVGDRVTITCRASESVSSWLAWYQQKPGKAPKLLIYGASTLEGGVPSRFSGSGSGTDFTLTISSLQPEDVATYYCQQAYRTPVTFGGGTKVEIK
Regarding B9, the binding result in experiment [1] is on record as “binds”.

B10: Lib1_P1_G3_scFv (scFv)
scFv: QVQLVQSGAEVKKPGASVKVSCKVSGYTSRQYIHWVRQAPGKGLEWMGWVTPIFGTTNYAQKFQGRVTMTEDTSTDTAYMELSSLKSEDTAVYYCAREWTGTTAFDIWGQGTLVTVSSSGGSTITSYNVYYTKLSSSGTDIQMTQSPSSVSASVGDRVTITCRASQDIGHYLAWYQQKPGKAPKLLIYAASNRASGVPSRFSGSGSGTDFTLTISSLQPEDFANYYCQQGYSAPYGFGGGTKVEIK
notes: VH-linker-VL; not shown: C-terminal 3xFLAG and SV5 tags
Consider B10, for which the Kd worked out at 0.029 nM in experiment [2], 0.073 nM in experiment [3] and 0.032 nM in experiment [4].

B11: 9621_Lib8_scFv (scFv, not shown: small tags and cut ends)
scFv: EVQLVESGGGLVQPGRSLRLSCAASGFSFSMYAMHWVRQAPGKGLEWVSAISPSGDATDYADSVEGRFTISRDNAKNSLYLQMNSLRAEDTAVYYCARGMQDYGHYYYYYMDVWGKGTTVTVSSSGGSTITSYNVYYTKLSSSGTDIQMTQSPSSLSASVGDRVTITCRASQDISTSLAWYQQKPGKAPKLLIYGASSLETGVPSRFSGSGSGTDFTLTISSLQPEDVATYYCQQGYIAPRTFGGGTKVEIK
For B11, the binding result in experiment [1] was “binds”.

B12: Lib4_P2_A5_scFv (scFv, not shown: small tags and cut ends)
scFv: QVQLQESGPGLVKPSQTLSLTCTVSGSSISSSSDYWSWIRQPPGKGLEWIGYIDISGDADYNPSLKSRVTMSVDTSKNQFSLKVNSVTAADTAVYYCARHLSSGWYGTYYFDYWGQGTLVTVSSSGGSTITSYNVYYTKLSSSGTEIVMTQSPATLSLSPGERATLSCRASQNIHSNLAWYQQKPGQAPRLLIYDASSRATGIPARFSGSGSGTDFTLTISSLEPEDFAVYYCQQGYTKPLTFGGGTKVEIK
As to B12, the binding result in experiment [1] was “binds”.

B13: Lib4_P2_B4_scFv (scFv, not shown: small tags and cut ends)
scFv: QVQLQESGPGLVKPSQTLSLTCTVSGASLGDQYWSWIRQPPGKGLEWIGYIHPSGDFDYNPSLKSRVTMSVDTSKNQFSLKVNSVTAADTAVYYCARHYSSSWYGTWYFDLWGRGTLVTVSSSGGSTITSYNVYYTKLSSSGTEIVMTQSPATLSLSPGERATLSCRASQNIGTNLAWYQQKPGQAPRLLIYDASVRAAGIPARFSGSGSGTDFTLTISSLEPEDFAVYYCQQSLTTPLTFGGGTKVEIK
On to B13, for which the binding result in experiment [1] is listed as “binds”.

B14: 1675_Lib1_scFv (scFv)
scFv: QVQLVQSGAEVKKPGASVKVSCKVSGVTLTSSAISWVRQAPGKGLEWMGGITPIFGTPIYAQKFQGRVTMTEDTSTDTAYMELSSLKSEDTAVYYCATDYGYPFWAFDIWGQGTMVTVSSSGGSTITSYNVYYTKLSSSGTDIQMTQSPSSVSASVGDRVTITCRASQGIYSALAWYQQKPGKAPKLLIYESSKRPSGVPSRFSGSGSGTDFTLTISSLQPEDFANYYCEQYASSPPTFGGGTKVEIK
notes: as for B10
Regarding B14, the values for the Kd in experiment [2], in experiment [3] and in experiment [4] were 0.03 nM, 0.077 nM and 0.052 nM, respectively.

B15: Lib1_P1_D1_scFv (scFv, not shown: small tags and cut ends)
scFv: QVQLVQSGAEVKKPGASVKVSCKVSGDTFTDRYIHWVRQAPGKGLEWMGGINTIFGTAIYAQKFQGRVTMTEDTSTDTAYMELSSLKSEDTAVYYCAREGATVSTNFDYWGQGTLVTVSSSGGSTITSYNVYYTKLSSSGTDIQMTQSPSSVSASVGDRVTITCRASQDIRKSLAWYQQKPGKAPKLLIYDISNRPSGVPSRFSGSGSGTDFTLTISSLQPEDFANYYCQQGYSAPYGFGGGTKVEIK
As for B15, in experiment [1], the binding result is given as “binds”.

B16: 1374_Lib8_scFv (scFv, not shown: small tags and cut ends)
scFv: EVQLVESGGGLVQPGRSLRLSCAASGVDFSTYAMHWVRQAPGKGLEWVSAISSSGAYTDYADSVEGRFTISRDNAKNSLYLQMNSLRAEDTAVYYCATDRGPFSGYGTQGWFDPWGQGTLVTVSSSGGSTITSYNVYYTKLSSSGTDIQMTQSPSSLSASVGDRVTITCRASQTIRSYLAWYQQKPGKAPKLLIYGASDLQSGVPSRFSGSGSGTDFTLTISSLQPEDVATYYCQQYANFPITFGGGTKVEIK
As for B16, in experiment [1], the binding result is given as “binds”.

B17: 1405_Lib8_scFv (scFv, not shown: small tags and cut ends)
scFv: B16 scFv with Q173R, T174D, R176T, G196H, D199T, Q201E, S202A, A238G, N239D, I242P
B17: in experiment [1], the binding result is given as “binds”.

B18: Lib1_P1_E9_scFv (scFv, not shown: small tags and cut ends)
scFv: QVQLVQSGAEVKKPGASVKVSCKVSGYTFTSHIIHWVRQAPGKGLEWMGGMNPYSNKAIYAQKFQGRVTMTEDTSTDTAYMELSSLKSEDTAVYYCARDASDYGDYGYYYYYMDVWGKGTTVTVSSSGGSTITSYNVYYTKLSSSGTDIQMTQSPSSVSASVGDRVTITCRASQYIGNDLAWYQQKPGKAPKLLIYEASQRPSGVPSRFSGSGSGTDFTLTISSLQPEDFANYYCQQQYNYPLTFGGGTKVEIK
Consider B18, for which, in experiment [1], the binding result is recorded as “binds”.
